Reference: patent US20240174748A1 (INNATE PHARMA, published 2024)
Where a chain is given by its changes, count along the chain named. Each block holds one binder with its values, some of them ahead of it.

Molecular target: T1, Cynomolgus NKp46 (Macaca fascicularis (cynomolgus), UniProt Q95JB9 22-254)
T1 construct: also called cynomologus NKp46; macaca fascicularis NKp46
Assay: not stated (human IgG1)

T1 sequence (Q95JB9 22-254): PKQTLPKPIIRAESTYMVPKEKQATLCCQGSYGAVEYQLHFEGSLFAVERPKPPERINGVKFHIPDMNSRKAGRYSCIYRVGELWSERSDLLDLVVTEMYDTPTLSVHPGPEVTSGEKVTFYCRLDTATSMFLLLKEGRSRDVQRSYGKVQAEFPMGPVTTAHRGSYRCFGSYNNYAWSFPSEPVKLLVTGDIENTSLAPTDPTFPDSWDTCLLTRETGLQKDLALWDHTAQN

- fold lower affinity for cynomolgus NKp46 than for human NKp46: 10 fold
B1: NKp46-4 H2L2 (antibody, human IgG1, V domains shown)
VH: QVQLVQSGAEVKKPGASVKVSCKASGYTFTSFTMHWVRQAPGQGLEWIGYINPSSGYTEYNQKFKDRTTITADKSTSTAYMELSSLRSEDTAVYYCVRGSSRGFDYWGQGTLVTVSS
VL: DIQMTQSPSSLSASVGDRVTITCRASENIYSNLAWFQQKPGKAPKLLVYAATNLADGVPSRFSGSGSGTDYTLTISSLQPEDFATYYCQHFWGTPRTFGGGTKVEIK
notes: Produced as human IgG1

- fold lower affinity for cynomolgus NKp46 than for human NKp46: 10 fold
B2: NKp46-4 H3L2 (antibody, human IgG1, V domains shown)
VH: B1 VH with I70L
VL: B1 VL
notes: Produced as human IgG1
